What all share (assay): SPR
For orientation: SPR reads the build-up and loss of mass on a sensor chip optically.

For experiment [1], the target named is T1, ActRIIa extracellular domain, C-terminal Fc-tagged chimera (UniProt P27037 20-135).
In experiment [2] the target is T2, BMPRII extracellular domain, C-terminal Fc-tagged chimera (UniProt Q13873 27-150).
T2 chain: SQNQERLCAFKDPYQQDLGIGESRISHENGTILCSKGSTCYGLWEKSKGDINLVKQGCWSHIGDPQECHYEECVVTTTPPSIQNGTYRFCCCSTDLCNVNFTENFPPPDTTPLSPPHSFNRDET

Experiment [3] deals with T3, ALK1 extracellular domain, C-terminal Fc-tagged chimera (UniProt P37023 22-118).
The target of experiment [4] is T4, ActRIIb extracellular domain, C-terminal Fc-tagged chimera (UniProt Q13705 19-137).
T4 chain: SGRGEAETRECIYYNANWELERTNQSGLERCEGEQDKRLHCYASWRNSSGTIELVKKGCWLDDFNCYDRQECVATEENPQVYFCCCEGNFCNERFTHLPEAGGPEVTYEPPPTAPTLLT

The target of experiment [5] is T1, ActRIIa extracellular domain, …. This is another data set of the same source.
Experiment [6] has as its target T2, BMPRII extracellular domain, C-terminal ….
The target of experiment [7] is T3, ALK1 extracellular domain, C-terminal …. This is another data set of the same source.
Experiment [8] addresses T4, ActRIIb extracellular domain, ….

T1 sequence (P27037 20-135, change not shown): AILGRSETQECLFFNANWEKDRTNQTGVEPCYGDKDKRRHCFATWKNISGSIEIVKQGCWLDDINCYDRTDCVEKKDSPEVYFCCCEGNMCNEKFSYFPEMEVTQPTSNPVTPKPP
T3 sequence (P37023 22-118, change not shown): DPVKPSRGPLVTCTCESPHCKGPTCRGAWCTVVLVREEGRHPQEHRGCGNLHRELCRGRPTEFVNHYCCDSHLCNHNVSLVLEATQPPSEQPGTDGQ

B1: MB109 (E. coli-derived mature domain of human bone morphogenetic protein-9, refolded functional dimer) (ligand)
chain: MSAGAGSHCQKTSLRVNFEDIGWDSWIIAPKEYEAYECKGGCFFPLADDVTPTKHAIVQTLVHLKFPTKVGKACCVPTKLSPISVLYKDDMGVPTLKYHYEGMSVAECGCR
As for B1, the Kd (usually the concentration at which binding is half-saturated) was 4.27 nM in experiment [1], 0.33 nM in experiment [2], 0.209 nM in experiment [3] and 0.154 nM in experiment [4]. Further, the koff (as a rule, the rate constant with which the complex falls apart) in experiment [5] is 0.0121 s⁻¹; in experiment [6], 0.00153 s⁻¹; in experiment [7] it was 0.000884 s⁻¹; in experiment [8], 0.00152 s⁻¹.

The record behind these values is article PMC3936849 (2014).
